Experiments:
[1] = molecular target: H2AK119ub1-modified nucleosome core particle (NCP) (Xenopus | not stated) (UniProt P0CG47); test: BLI; competition: DNMT3A1 UDR loaded to biosensors pre-loaded with H2AK119ub1-modified NCP and various concentrations of tag-free JARID2(1-60)
[2] = molecular target: H2AK119ub1-modified nucleosome core particle (NCP) (Xenopus | not stated) (UniProt P0CG47); test: BLI; biotin-labeled nucleosomes immobilised on streptavidin (SA) XT biosensors (Gator), protein in solution; 30 °C, 1000 rpm; 20 mM Tris-HCl pH 7.5, 50 mM NaCl, 1 mM DTT, 0.01% Tween-20; 3 min association, 6 min dissociation

Substance | percent decrease of the DNMT3A1 UDR association response at a JARID2(1-60):DNMT3A1 UDR molar ratio of 32:1 [1] [%] | Kd [2] [nM]
tag-free JARID2 N-terminal segment (residues 1–60) (from UniProt Q92833 1-60) (domain or fragment) | 40 | 
GST-tagged N-terminal segment of JARID2 (residues 1–60) (from UniProt Q92833 1-60) (domain or fragment) |  | 250

From publication PMC11266573
